Assay results: US20250304655A1 (CSL BEHRING, published 2025)

Assays:
Assay in all cases: BLI, LRP1 cluster III immobilised, analyte 2000-31.25 nM, kinetic fit 1:1
[1] = biological target: T1, heme:Hx (plasma derived hemopexin complexed with heme) (UniProt P02790 24-462, limits assumed, heme bound, not covalent)
T1 construct: mature; Heme-loaded plasma-derived hemopexin, analyte in BLI; also called heme complexed plasma derived Hx; heme-hemopexin complex
T1 sequence (looked up): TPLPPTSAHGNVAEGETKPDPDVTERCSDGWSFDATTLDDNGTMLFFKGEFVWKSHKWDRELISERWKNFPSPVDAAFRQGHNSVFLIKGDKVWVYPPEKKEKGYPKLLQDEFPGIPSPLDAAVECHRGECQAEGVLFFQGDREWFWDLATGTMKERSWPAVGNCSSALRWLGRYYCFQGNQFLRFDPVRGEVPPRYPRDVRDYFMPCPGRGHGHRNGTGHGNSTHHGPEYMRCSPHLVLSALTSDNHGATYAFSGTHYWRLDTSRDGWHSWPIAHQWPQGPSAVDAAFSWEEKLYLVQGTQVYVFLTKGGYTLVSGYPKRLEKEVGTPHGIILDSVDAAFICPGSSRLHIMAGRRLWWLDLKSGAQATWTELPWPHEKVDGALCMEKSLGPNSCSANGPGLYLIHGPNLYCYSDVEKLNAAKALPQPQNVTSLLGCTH
Method: (§1) Streptavidin pre-coated biosensors (Cat No: 18-5019, FortéBio) were used. […] A reference control was included in every experiment (sensor loaded with ligand without analyte). Data was acquired on an OctetRED96 (FortéBio) at 30° C. with the following settings:
(§2) Since the full length receptor is challenging to express recombiantly, we immobilized only a fragment of CD91/LRP1 (cluster III).

[2] = biological target: T2, HuHemopexin-HuHaptoglobin2FS(148-406)-8His (human, UniProt P02790 24-462; P00738 162-406)
T2 construct: Cleaved by co-expressed C1r-LP; the two chains are held by the inter-chain disulphide; Uncomplexed form (no heme, no Hb)
T2 sequence (P00738 other isoform, or with tags, fused parts or gaps): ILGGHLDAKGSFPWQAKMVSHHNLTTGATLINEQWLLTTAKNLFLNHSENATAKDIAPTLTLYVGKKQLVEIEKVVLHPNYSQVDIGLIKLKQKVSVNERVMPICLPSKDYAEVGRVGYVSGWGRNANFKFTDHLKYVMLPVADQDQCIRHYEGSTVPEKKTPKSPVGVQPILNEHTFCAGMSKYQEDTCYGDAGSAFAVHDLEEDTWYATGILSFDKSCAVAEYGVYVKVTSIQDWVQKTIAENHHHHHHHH
Method: as §1, §2

heme:Hx-Hp complex = biological target: T3, heme:Hx-Hp complex (human, UniProt P02790 24-462; P00738 162-406, heme bound, not covalent)
T3 construct: The Hx-Hp fusion protein loaded with heme
T3 sequence (P00738 other isoform, or with tags, fused parts or gaps): as above
Method: as §1, §2

Kd [1]: 392 nM | koff [1]: 0.068 s⁻¹ | kon [1]: 170000 M⁻¹ s⁻¹ | Kd [2]: 2700 nM | koff [2]: 0.039 s⁻¹ | kon [2]: 15000 M⁻¹ s⁻¹ | Kd (heme:Hx-Hp complex): 480 nM | koff (heme:Hx-Hp complex): 0.044 s⁻¹ | kon (heme:Hx-Hp complex): 91000 M⁻¹ s⁻¹
B1: biotinylated LRP1 Cluster III (receptor)
chain: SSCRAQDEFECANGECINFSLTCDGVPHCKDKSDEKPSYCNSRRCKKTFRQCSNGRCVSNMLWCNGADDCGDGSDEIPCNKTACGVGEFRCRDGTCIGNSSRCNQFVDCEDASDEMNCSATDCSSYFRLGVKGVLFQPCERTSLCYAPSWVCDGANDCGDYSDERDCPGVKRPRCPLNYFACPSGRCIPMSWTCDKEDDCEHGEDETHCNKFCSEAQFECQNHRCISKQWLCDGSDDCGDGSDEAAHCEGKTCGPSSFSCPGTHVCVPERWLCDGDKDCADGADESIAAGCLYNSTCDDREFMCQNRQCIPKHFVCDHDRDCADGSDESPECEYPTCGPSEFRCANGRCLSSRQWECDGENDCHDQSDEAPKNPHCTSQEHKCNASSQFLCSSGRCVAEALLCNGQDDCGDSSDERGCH
modifications: biotinylated
notes: Detected with an anti-His antibody, so it appears to carry a His tag; also called LRP1/CD91 domain 3; CD91/LRP1 (cluster III)
